Our source for the plasminogenolytic activity (PAU/mg) (PAU/mg (single chain)) and ratio of the rates of Lys- to Glu-plasminogen activation in the presence of fibrin stimulator (Lys/Glu) (Lys/Glu (ratio of rates), single chain) values is US5595736.

The target in assay [1] is plasminogen.
Assay [2] concerns the target Lysine (Lys)-Plasminogen.

B1: mt-PA6-D (enzyme)
chain: SYQGNSDCYFGQGSAYRGTHSLTESGASCLPWNGSMILIGKVYTAQNPSAQALGLGKHNYCRNPDGDAKPWCHVLKNRRLTWEYCDVPSCSTCGLRQYSQPQFRIKGGLFADIASHPWQAAIFAKHRRSPGERFLCGGILISSCWILSAAHCFQERFPPHHLTVILGRTYRVVPGEEEQKFEVEKYIVHKEFDDDTYDNDIALLQLKSDSSRCAQESSVVRTVCLPPADLQLPDWTECELSGYGKHEALSPFYSERLKEAHVRLYPSSRCTSQHLLNRTVTDNMLCAGDTRSGGPQANLHDACQGDSGGPLVCLNDGRMTLVGIISWGLGCGQKDVPGVYTKVTNYLDWIRDNMRP
modifications: diglycosylated: alternate glycosylation consensus sequence at the amino acids surrounding position 33 (equivalent to amino acid 205 of t-PA) in Kringle 2, and the glycosylation consensus sequence within the Serine Protease domain
On to B1, for which the plasminogenolytic activity (PAU/mg) (PAU/mg (single chain)) in assay [1] turned out to be 189. In addition, in assay [2], the ratio of the rates of Lys- to Glu-plasminogen activation in the presence of fibrin stimulator (Lys/Glu) (Lys/Glu (ratio of rates), single chain) turned out to be 3.3.

B2: mt-PA9 (enzyme)
chain: SYQDTRATCYEDQGISYRGTWSTAESGAECTNWNSSALAQKPYSGRRPDAIRLGLGNHNYCRNPDGDAKPWCHVLKNRRLTWEYCDVPSCSTCGLRQYSQPQFRIKGGLFADIASHPWQAAIFAKHRRSPGERFLCGGILISSCWILSAAHCFQERFPPHHLTVILGRTYRVVPGEEEQKFEVEKYIVHKEFDDDTYDNDIALLQLKSDSSRCAQESSVVRTVCLPPADLQLPDWTECELSGYGKHEALSPFYSERLKEAHVRLYPSSRCTSQHLLNRTVTDNMLCAGDTRSGGPQANLHDACQGDSGGPLVCLNDGRMTLVGIISWGLGCGQKDVPGVYTKVTNYLDWIRDNMRP
modifications: diglycosylated: obligatory glycosylation site located in the first exon of Kringle 1, and the site in the Serine Protease domain
B2 displayed a plasminogenolytic activity (PAU/mg) (PAU/mg (single chain)) in assay [1] of 50. Also, in assay [2], the ratio of the rates of Lys- to Glu-plasminogen activation in the presence of fibrin stimulator (Lys/Glu) (Lys/Glu (ratio of rates), single chain) came to 2.

B3: mt-PA6-E (enzyme)
chain: SYQGNSDCYFGQGSAYRGTHSLTESGASCLPWNSMILIGKVYTAQNGSAQALGLGKHNYCRNPDGDAKPWCHVLKNRRLTWEYCDVPSCSTCGLRQYSQPQFRIKGGLFADIASHPWQAAIFAKHRRSPGERFLCGGILISSCWILSAAHCFQERFPPHHLTVILGRTYRVVPGEEEQKFEVEKYIVHKEFDDDTYDNDIALLQLKSDSSRCAQESSVVRTVCLPPADLQLPDWTECELSGYGKHEALSPFYSERLKEAHVRLYPSSRCTSQHLLNRTVTDNMLCAGDTRSGGPQANLHDACQGDSGGPLVCLNDGRMTLVGIISWGLGCGQKDVPGVYTKVTNYLDWIRDNMRP
modifications: diglycosylated: alternate glycosylation consensus sequence at the amino acids surrounding position 48 (equivalent to amino acid 219 of t-PA) in Kringle 2 (claim 2: monoglycosylated at amino acid residue number 47), and the glycosylation consensus sequence within the Serine Protease domain
In assay [1], B3 showed a plasminogenolytic activity (PAU/mg) (PAU/mg (single chain)) of 59. Also, the ratio of the rates of Lys- to Glu-plasminogen activation in the presence of fibrin stimulator (Lys/Glu) (Lys/Glu (ratio of rates), single chain) in assay [2] turned out to be 2.

B4: Primary mt-PA6 (mt-PA6-P) (enzyme)
chain: SYQGNSDCYFGNGSAYRGTHSLTESGASCLPWNSMILIGKVYTAQNPSAQALGLGKHNYCRNPDGDAKPWCHVLKNRRLTWEYCDVPSCSTCGLRQYSQPQFRIKGGLFADIASHPWQAAIFAKHRRSPGERFLCGGILISSCWILSAAHCFQERFPPHHLTVILGRTYRVVPGEEEQKFEVEKYIVHKEFDDDTYDNDIALLQLKSDSSRCAQESSVVRTVCLPPADLQLPDWTECELSGYGKHEALSPFYSERLKEAHVRLYPSSRCTSQHLLNRTVTDNMLCAGDTRSGGPQANLHDACQGDSGGPLVCLNDGRMTLVGIISWGLGCGQKDVPGVYTKVTNYLDWIRDNMRP
modifications: glycosylated at amino acid 276 but not at amino acid 12
B4: the plasminogenolytic activity (PAU/mg) (PAU/mg (single chain)) in assay [1] worked out at 87. Besides, in assay [2], the ratio of the rates of Lys- to Glu-plasminogen activation in the presence of fibrin stimulator (Lys/Glu) (Lys/Glu (ratio of rates), single chain) turned out to be 1.

B5: Variant mt-PA6 (mt-PA6-V) (enzyme)
chain: SYQGNSDCYFGNGSAYRGTHSLTESGASCLPWNSMILIGKVYTAQNPSAQALGLGKHNYCRNPDGDAKPWCHVLKNRRLTWEYCDVPSCSTCGLRQYSQPQFRIKGGLFADIASHPWQAAIFAKHRRSPGERFLCGGILISSCWILSAAHCFQERFPPHHLTVILGRTYRVVPGEEEQKFEVEKYIVHKEFDDDTYDNDIALLQLKSDSSRCAQESSVVRTVCLPPADLQLPDWTECELSGYGKHEALSPFYSERLKEAHVRLYPSSRCTSQHLLNRTVTDNMLCAGDTRSGGPQANLHDACQGDSGGPLVCLNDGRMTLVGIISWGLGCGQKDVPGVYTKVTNYLDWIRDNMRP
modifications: glycosylated at amino acids 276 and 12
For B5, in assay [1], the plasminogenolytic activity (PAU/mg) (PAU/mg (single chain)) turned out to be 56. Besides, in assay [2], the ratio of the rates of Lys- to Glu-plasminogen activation in the presence of fibrin stimulator (Lys/Glu) (Lys/Glu (ratio of rates), single chain) stood at 1.4.
